Source: IntAct's records for PubMed 21247419

B1: Dexamethasone-induced Ras-related protein 1 (Mus musculus), O35626 (parent)
chain: MKLAAMIKKMCPSDSELSIPAKNCYRMVILGSSKVGKTAIVSRFLTGRFEDAYTPTIEDFHRKFYSIRGEVYQLDILDTSGNHPFPAMRRLSILTGDVFILVFSLDNRDSFEEVQRLKQQILDTKSCLKNKTKENVDVPLVICGNKGDRDFYREVEQREIEQLVGDDPQRCAYFEISAKKNSSLDQMFRALFAMAKLPSEMSPDLHRKVSVQYCDVLHKKALRNKKLLRAGSGGGGDHGDAFGILAPFARRPSVHSDLMYIREKTSVGSQAKDKERCVIS
partner: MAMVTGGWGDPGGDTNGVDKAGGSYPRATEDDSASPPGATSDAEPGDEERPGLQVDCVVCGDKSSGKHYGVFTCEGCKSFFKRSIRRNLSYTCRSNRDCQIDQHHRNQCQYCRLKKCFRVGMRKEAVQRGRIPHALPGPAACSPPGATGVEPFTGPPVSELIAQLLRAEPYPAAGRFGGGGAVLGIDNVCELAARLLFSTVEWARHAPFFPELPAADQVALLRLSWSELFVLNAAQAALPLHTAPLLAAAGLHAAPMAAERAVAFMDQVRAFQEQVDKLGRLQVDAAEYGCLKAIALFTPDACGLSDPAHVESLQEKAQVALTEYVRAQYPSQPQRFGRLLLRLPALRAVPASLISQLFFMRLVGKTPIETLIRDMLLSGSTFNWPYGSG

Variants of: B1
Settings: with nr2f6_mouse Nr2f6, P43136

effect of a mutation on the interaction	Variant
decreasing interaction	G81A
decreasing interaction	K34N
